One data set deals with claudin-1. As to the kind of experiment: Western blot of claudin-1 protein in primary human keratinocytes. Particulars: PHK. Format: cell-based. As for the experimental part:
Human keratinocytes were isolated from neonatal foreskin. Poumay et al., “Basal Detachment of the Epidermis Using Dispase: Tissue Spatial Organization and Fate of Integrin Alpha 6 Beta 4 and Hemidesmosomes,” J. Invest. Dermatol. 102:111-7 (1994), which is hereby incorporated by reference in its entirety. PHK were cultured in Keratinocyte-SFM (Invitrogen/Gibco) with 1% Pen/Strep, 0.2% Amphotericin B (Invitrogen/Gibco). To differentiate PHK, cells were grown in DMEM (Invitrogen/Gibco) with 10% heat-inactivated fetal bovine serum (Invitrogen/Gibco) and 1% Pen/Strep, 0.2% Amphotericin B (Invitrogen/Gibco). For TJ modulation experiments, the following cytokines were added alone or in combination to the differentiation media; human IL-4 (50 ng/ml; R&D system) and IL-13 (50 ng/ml; R&D system).
(§1) PHK were lysed on ice in RIPA lysis buffer (20 mM Tris, 50 mM NaCl, 2 mM EDTA, 2 mM EGTA, 1% sodium deoxycholate, 1% TX-100, and 2% SDS, pH 7.4), with 1:100 Protease Inhibitor Cocktail (Sigma), 1:100 Phosphatase Inhibitor Cocktail ([…] for 30 min at 4° C. The samples were heated at 95° C. for 10 min and then centrifuged at 14,000 rpm for 15 min. Forty μg of protein, determined by BCA (Pierce) in NuPage LDS Sample Buffer (Invitrogen) was applied to 4-12% NuPage Bis-Tris gels (Invitrogen). Electrophoresis was performed under reducing conditions with MES SDS Buffer (Invitrogen). Membranes were incubated in blotting solution (5% non-fat dry milk in PBS+0.05% Tween 20) at RT for 1 h and then incubated with primary antibodies; claudin-1 (JAY.8; Zymed), occludin (OC/3F10; Zymed) and GAPDH (FL-355; Santa Cruz). An HRP-linked secondary antibody (GE Healthcare) was used with ECL (GE Healthcare) to visualize bands by autoradiography with Kodak BioMax MR film. The pixel intensity of each band was estimated with Image J.
(§2) PHK were plated on glass coverslips at 2-3×10^5 cells/well in a 6-well plate or at 2-3×10^4 cells/filter in Transwell insert (Costar; PET membrane, 0.4 μm pore size, 6.5 mm insert) in Keratinocyte-SFM without antibiotics. The next day after plating, cells were transfected with claudin-1 specific or control (scrambled) siRNAs (Santa Cruz) using Lipofectamine™ 2000 transfection Reagent (Invitrogen). TEER and permeability experiments were conducted 48 hours after PHK were switched to differentiation media.
On the technique in general: In western blotting, separated proteins are transferred to a membrane and probed.

A further data set relates to occludin. The data set is described as follows: Western blot of occludin after CLDN1 siRNA in PHK. Format: cell-based, human. Particulars: 48 h. On the procedure: as §1
PHK were plated on glass coverslips at 2-3×10^5 cells/well in a 6-well plate or at 2-3×10^4 cells/filter in Transwell insert (Costar; PET membrane, 0.4 μm pore size, 6.5 mm insert) in Keratinocyte-SFM without antibiotics. […]

A further data set relates to claudin-1 transcripts. The data set is described as follows: qPCR of claudin-1 transcripts after siRNA transfection of PHK. Format: cell-based, human. The settings on record: siRNA 100 nM. As for the experimental part:
(§3) QPCR was performed using the iScript™ cDNA Synthesis kit and iQ™ SYBER Green Supermix assay system (Bio-Rad Laboratories). All PCR amplifications were carried out in triplicate on an iQ5 Multicolor real-time PCR detection system (Bio-Rad). Primers were designed and synthesized by Integrated DNA Technologies (Table 1). Relative gene expression was calculated by using the 2^−ΔΔCt method. Livak and Schmittgen, “Analysis of Relative Gene Expression Data Using Real-Time Quantitative PCR and the 2(−Delta Delta C(T)) Method,” Methods 25:402-8 (2001), which is hereby incoporated by reference in its entirety. The normalized Ct value of each sample was calculated using GAPDH as an endogenous control gene.
as §2
siRNA approach was used to selectively downregulate claudin-1 in primary human keratinocytes (PHK). […] There was no effect on mRNA expression of occludin, ZO-1, nectin-1, E-cadherin or filaggrin (n=5/group). Relative gene expressions were calculated by using the 2^−ΔΔCt method, in which Ct indicates cycle threshold, the fractional cycle number where the fluorescent signal reaches detection threshold. The normalized Ct value of each sample was calculated using GAPDH as endogenous control gene. The specific sequence information for the claudin-1 siRNA (h) is detailed below. (This siRNA is a pool of 3 separate strands.)
On the technique in general: Quantitative PCR measures a nucleic acid by following its amplification.

Another data set has as its system connexin-26 (GJB2). The data set is described as follows: qPCR of connexin-26 (GJB2) after claudin-1 knockdown in PHK. Format: cell-based, human. The settings on record: claudin-1 siRNA transfected PHK, n=6. On the procedure:
as §3, §2

In data set [1] the test system is primary human keratinocytes (PHK). The data set is described as follows: Trans Epithelial Electric Resistance (TEER) in PHK monolayers. Format: cell-based. As for the experimental part: PHK were plated at a subconfluent density of 2.5−3×10^4 cells/filter in Transwell insert and cultured in Keratinocyte-SFM media until confluent. TEER was measured using an EVOMX voltohmmeter (World Precision Instruments, Sarasota, Fla.). The resistance of cell-free filters was subtracted from each experimental value.
as §2
TEER was measured in PHK as described above. PHK were stimulated with S. aureus-derived peptidoglycan (PGN, 0.2-20 μg/ml, n=3-7) (FIG. 19A), Malp-2 (10-1000 ng/ml, n=3) (FIG. 19B), and Pam3CSK4 a TLR1/2 ligand (0.01-20 μg/ml, n=3-6) (FIG. 19C). Data are presented by analyzing the area under the TEER curve and normalized to the mean values for the control group (media alone)*p<0.05; **p<0.01.

For data set [2] the test system is unchanged. The data set is described as follows: Click-iT EdU proliferation assay in PHK. Format: cell-based. Particulars: n=3.
The next data set concerns HSV-1 strain F. The data set is described as follows: Infectious center assay. Format: cell-based, Herpes Simplex Virus (HSV)-1. The settings on record: 24 h post-infection, n=3. As for the experimental part:
Twenty-four hours post-infection, PHK were treated with 0.05% Trypsin-EDTA (Invitrogen/Gibco) for 5 min at 37° C. followed by gently scraping to lift the cells, washed 3 times in DMEM containing 1% HI-FBS, and vortexed for 30 sec to disrupt cell clumps. Alive cells were counted using Trypan blue exclusion and scalar PHK dilutions (1000 to 1 cells in 1 ml of media) were plated onto pre-grown monolayers of Vero cells in six well plates. After 2 h, 1 ml of DMEM containing 5% HI-FBS and 0.4% human-γ-globulin (Sigma; final concentration 0.5 mg/ml) was added to each well. After 3 days incubation at 37° C., cells were fixed (75% MeOH/25% acetic acid) and stained with 0.1% crystal violet. Plaques were counted by 2 independent investigators and results expressed as percent of infected PHK.

Where “and” joins values, the source holds several entries; their conditions need not be identical. Equal values may be shown once.

B1: CLDN1 siRNA: claudin-1 specific siRNA (Santa Cruz), a pool of 3 separate strands, SEQ ID NO: 10-15 (nucleic acid)
chain 1: UACAUAGGCAUAGUUCAUGNN
chain 2: CAUGAACUAUGCCUAUGUANN
chain 3: AACGUAUGCAGUUAAUUCCNN
chain 4: GGAAUUAACUGCAUACGUUNN
chain 5: UGAAGAUCUAUGUAUGUGGNN
chain 6: CCACAUACAUAGAUCUUCANN
modifications: chemistry not given here
In the case of B1, the “claudin-1 protein by Western blot” value in the data set on claudin-1 (CLDN1 siRNA, 48 h) is reported as “dose-dependent reduction”. Further, the “decrease in claudin-1 protein expression compared to scrambled siRNA-transfected cells” value with claudin-1 (dose-dependent) was at most 60%. Moreover, in the data set on occludin, the “occludin protein by Western blot” value is listed as “No change”. Moreover, the “reduction in claudin-1 transcripts compared to control transfected cells” value in the data set with claudin-1 transcripts is 50%. Also, the “claudin-1 transcripts (MEAN±SEM)” value in the data set with claudin-1 transcripts (n=5/group) is recorded as 5.42±0.8 RVU. The “claudin-1 transcripts relative to control transfected cells” value was 0.5 fold with claudin-1 transcripts (n=5/group) and 0.5%±0.06 fold in the data set with claudin-1 transcripts (n=5/group, listed as Cldn1 siRNA). Further, the “connexin-26 (GJB2) expression over control” value with connexin-26 (GJB2) was found to be 1.7±0.8 fold. Moreover, the “reduction in TJ function (electrical resistance and permeability assays)” value in data set [1] (claudin-1 siRNA, PHK) was around 50%. In addition, the TEER in data set [1] (siRNA 100 nM, 48 hours after switch to differentiation media, n=4) is recorded as 80.6±6.4 ohms×cm^2. Besides, the “drop in TEER” value in data set [1] (siRNA 100 nM, vs scrambled siRNA) is given as above 50%. In addition, the “cell proliferation by Click-iT EdU assay” value in data set [2] (CLDN1 siRNA, PHK) was “enhanced cell proliferation”. In data set [2] (claudin-1 depleted PHK), this molecule yielded a proliferating cells of 21.6±1.4 EdU positive cells/hpf. For the same molecule, the “PHK infected with HSV-1” value in the data set with HSV-1 strain F was 38±6% and 38±6.43%.
